The values that follow come from IntAct's records for PubMed 16284401.

The labels stand for the following.
B1: Crk-like protein (Rattus norvegicus (Rat)), Q5U2U2 (parent)
chain: MSSARFDSSDRSAWYMGPVSRQEAQTRLQGQRHGMFLVRDSSTCPGDYVLSVSENSRVSHYIINSLPNRRFKIGDQEFDHLPALLEFYKIHYLDTTTLIEPAPRYPNPPMGSVSAPNLSTAEENLEYVRTLYDFPGNDAEDLPFKKGELLVIIEKPEEQWWSARNKDGRVGMIPVPYVEKLVRSSPHGKHGNRNSNSYGIPEPAHAYAQPQTTTPLPTVASTPGAAINPLPSTQNGPVFAKAIQKRVPCAYDKTALALEVGDIVKVTRMNINGQWEGEVNGRKGLFPFTHVKIFDPQNPDDNE
B2: Kinase D-interacting substrate of 220 kDa (Rattus norvegicus (Rat)), Q9EQG6 (parent)
chain: MSVLISQSVINYVEEENIPALKALLEKCKDVDERNECGQTPLMLAAEQGNVEIVKELLKNGANCNLEDLDNWTALISASKEGHIHIVEELLKSGASLEHRDMGGWTALMWACYKGRTDVVELLLSHGANPSVTGLYSVYPIIWAAGRGHADIVHLLLQNGAKVNCSDKYGTTPLVWAARKGHLECVKHLLAMGADVDQEGANSMTALIVAVKGGYTQSVKEILKRNPNVNLTDKDGNTALMIASKEGHIEIVQDLLDAGTYVNIPDRSGDTVLIGAVRGGHVEIVRALLQKYADIDIRGQDNKTALYWAVEKGNATMVRDILQCNPDTEICTKDGETPLIKATKMRNIEVVELLLDKGAKVSAVDKKGDTPLHVAIRGRSRRLAELLLRNPKDGRLLYRPNKAGETPYNIDCSHQKSILTQIFGARHLSPTETDGDMLGYDLYSSALADILSEPTMQPPICVGLYAQWGSGKSFLLKKLEDEMKTFAGQQTEPLFQFSWLIVFLTLLLCGGLGLVFAFTVDTNLAIAISLSFLALIYIFFIVIYFGGRREGESWNWAWALSTRLARHIGYLELLFKLMFVNPPELPEQTTKALPVRFLFTDYNRLSSVGGETSLAEMIATLSDACEREFGFLATRLFRVFRTEESQGKKKWKKTCCLPSFVIFLFIVGCIIAGITLLAIFRVDPKHLTVNAILISIASVVGLAFVLNCRTWWQVLDSLLNSQRKRLHSAASKLHKLKSEGFMKVLKCEVELMARMAKTIDSFTQNQTRLVVIIDGLDACEQDKVLQMLDTVRVLFSKGPFIAIFASDPHIIIKAINQNLNSVLRDSNINGHDYMRNIVHLPVFLNSRGLSNARKFLVTSATNGDITCSDTTGTQEDTDRRVSQNSLGEMTKLGSKTALNRRDTYRRRQMQRTITRQMSFDLTKLLVTEDWFSDISPQTMRRLLNIVSVTGRLLRANQITFNWDRLASWINLTEQWPYRTSWLILYLEETEGLPDQMTLKTIYERISKNIPTTKDVEPLLEIDGDIRNFEVFLSSRTPVLVARDVKTFLPCTVNLDPKLREIIADVRAAREQINIGGLAYPPLPLHEGPPRPPSGYSQPASVCSSASFNGPFPGGVVSPQPHSSYYSGLSGPQHPFYNRPFFAPYLYTPRYYPGGSQHLISRSSVKTSLPRDQNNGLPCDSGFNKQRQAAVPATGSSLLLSSMTVDVVCEKLRQIEGLDQSMMPQYCTTIKKANINGRVLSQCNIDELKKEMAMNFGDWHLFRSMVLEMRSVESQVVPEDPRFLNENSSAPVPHGESARRSSHTELPLTELSSQTPYTLNFSFEELNTLGLDEGAPRHSNLSWQSQTRRTPSLSSLNSQDSSIEISKLTDKVQAEYRDAYREYIAQMSQLEGGTGSSTISGRSSPHSTYYIGQSSSGGSIHSTLEQERGKEGELKQEDGRKSFLMKRGDVIDYSSSGVSTNEASPLDPITEEDEKSDQSGSKLLPGKKSSERPSLFQTDLKLKGGGLRYQKLPSDEDESGTEESDNTPLLKDDKDKKAEGKAERVCKSPEHSAEPIRTFIKAKEYLSDALLDKKDSSDSGVRSNESSPNHSLHNEAADDSQLEKANLIELEDEGHSGKRGMPHSLSGLQDPIIARMSICSEDKKSPSECSLIASSPEESWPACQKAYNLNRTPSTVTLNNNTAPTNRANQNFDEIEGIRETSQVILRPGPSPNPTAVQNENLKSMAHKRSQRSSYTRLSKDASELHAASSESTGFGEERESIL

The variants in one test derive from B1. The conditions noted are these: with kdis_rat Kidins220, Q9EQG6.
Turning to R39N, the “effect of a mutation on the interaction” value was “decreasing interaction”.

The variants in a further test derive from B2. The conditions noted are these: with crkl_human CRKL.
As to Y1095F, the “effect of a mutation on the interaction” value was “decreasing interaction”.

The variants in the next test derive from B2. The note with it: with crkl_rat Crkl, Q5U2U2.
On to Y1095F, for which the “effect of a mutation on the interaction” value is reported as “decreasing interaction”.
